What was measured:
[1] = target: human Aβ(1-40) Dutch type
[2] = target: T1, human fibrin α-chain (148-160) amyloid fragment with Lys157Ala mutation (FP13)
T1 chain: KRLEVDIDIAIRS

B1: human factor XII from plasma (Calbiochem, #233490) (protein)
chain: IPPWEAPKEHKYKAEEHTVVLTVTGEPCHFPFQYHRQLYHKCTHKGRPGPQPWCATTPNFDQDQRWGYCLEPKKVKDHCSKHSPCQKGGTCVNMPSGPHCLCPQHLTGNHCQKEKCFEPQLLRFFHKNEIWYRTEQAAVARCQCKGPDAHCQRLASQACRTNPCLHGGRCLEVEGHRLCHCPVGYTGAFCDVDTKASCYDGRGLSYRGLARTTLSGAPCQPWASEATYRNVTAEQARNWGLGGHAFCRNPDNDIRPWCFVLNRDRLSWEYCDLAQCQTPTQAAPPTPVSPRLHVPLMPAQPAPPKPQPTTRTPPQSQTPGALPAKREQPPSLTRNGPLSCGQRLRKSLSSMTRVVGGLVALRGAHPYIAALYWGHSFCAGSLIAPCWVLTAAHCLQDRPAPEDLTVVLGQERRNHSCEPCQTLAVRSYRLHEAFSPVSYQHDLALLRLQEDADGSCALLSPYVQPVCLPSGAARPSETTLCQVAGWGHQFEGAEEYASFLQEAQVPFLSLERCSAPDVHGSSILPGMLCAGFLEGGTDACQGDSGGPLVCEDQAAERRLTLQGIISWGSGCGDRNKPGVYTDVAYYLAWIREHTVS
- activation of factor XII, detected by the conversion of Chromozym-PK upon formation of kallikrein from prekallikrein [1]: Like kaolin, amyloid-like peptide aggregates of FP13 and Aβ stimulate the activation of factor XII
- auto-activation of purified factor XII, substrate S-2222 [1]: All three amyloid-like aggregates are able to induce factor XII auto-activation ... the potency of the Aβ(1-40) E22Q is somewhat lower
- activation of factor XII, detected by the conversion of Chromozym-PK upon formation of kallikrein from prekallikrein [2]: Like kaolin, amyloid-like peptide aggregates of FP13 and Aβ stimulate the activation of factor XII
